Results from patent US20160264953A1.

Columns and labels:
[1] = target: mannose-6-phosphate receptor; experiment: relative binding to mannose-6-phosphate receptor; method not given
[2] = target: mannose-6-phosphate receptor; experiment: relative binding to mannose-6-phosphate receptor (Fabrazyme = 100); method not given

Binding to M6Pr (%) [1] | Binding to M6Pr (%) [2] | Molecule
100% | – | Fabrazyme® (from UniProt P06280 32-429) (enzyme)
– | 130% | recombinant human α-galactosidase-A protein provided herein (FZ2G) (enzyme, N-linked oligosaccharides (including mannose-6-phosphate and bis-mannose-6-phosphate oligosaccharides) at Asn108, Asn161 and Asn184) LDNGLARTPTMGWLHWERFMCNLDCQEEPDSCISEKLFMEMAELMVSEGWKDAGYEYLCIDDCWMAPQRDSEGRLQADPQRFPHGIRQLANYVHSKGLKLGIYADVGNKTCAGFPGSFGYYDIDAQTFADWGVDLLKFDGCYCDSLENLADGYKHMSLALNRTGRSIVYSCEWPLYMWPFQKPNYTEIRQYCNHWRNFADIDDSWKSIKSILDWTSFNQERIVDVAGPGGWNDPDMLVIGNFGLSWNQQVTQMALWAIMAAPLFMSNDLRHISPQAKALLQDKDVIAINQDPLGKQGYQLRQGDNFEVWERPLSGLAWAVAMINRQEIGGPRSYTIAVASLGKGVACNPACFITQLLPVKRKLGFYEWTSRLRSHINPTGTVLLQLENTMQMSLKDLL
